Experimental data reported in doi:10.1101/2022.06.29.497979, “Cryo-EM structure of a eukaryotic zinc transporter at a low pH suggests its Zn^2+-releasing mechanism” (bioRxiv, 2022).

Molecular target: the molecule itself
Assay: cryo-EM structure; xtZnT8-Zn^2+: single-particle cryo-EM, 20 mM Tris-HCl pH 7.5, 150 mM NaCl, 5 mM beta-mercaptoethanol, 0.5 mM DDM, 1 mM ZnSO4; 3.9 A

B1: ZnT8 from Xenopus tropicalis, xtZnT8-BRIL fusion protein (natural protein, UniProt Q5XHB4 1-374, looked up)
chain: MKGSEEAYLVSDKATKMYSLTKDSEKNHPSKPPLQDEENPQSKYHCHNNNKKAYDARQREQTFAKKKLCIASLICFVFISAEIVGGYIAGSLAVVTDAAHLLVDLSSFFISLCSLWLSSKSSTTRLTFGWHRAEILGALMSVITIWLVTGVLVYLACERLIRPDYTIDGTVMLITSACALGANLVLALILHQSGHGHSHAGGKHEHMASEYKPQTNASIRAAFIHVIGDLFQSISVLISALIIYFKPEYKMADPICTFIFSIFVLITTVTVLRDLLTVLMEGTPRGIHYSDVKQSILAVDGVKSVHSLHLWALTMNQVILSAHIATDIVGESKRILKDVTQNVFARFPFHSVTIQVEPIEDQSPECMFCYEPTQ
notes: Zinc transporter 8 (ZnT8, SLC30A8) from Xenopus tropicalis, full-length wild type, NCBI NP_001011041.1; BRIL was fused to the carboxy-end of xtZnT8 before the TEV site and His10; it is written as a carrier under tags; also called zinc transporter 8; xtZnT8-Zn^2+; not shown: BRIL (bacterial cytochrome b562RIL), C-terminal, kept
- stoichiometry N: 2
